Article PMC9297526

Target: human alpha-thrombin (human, UniProt P00734;P00734 328-363;364-622)
Assay: ITC

GGTTGGTGTGGTTGG (structured_DNA) [TBA]
Ka: 8.46e+06 M⁻¹
